The labels stand for the following.
B1: hu2C4-g3.1 IgG1 (antibody, V domains shown)
VH: EVQLVESGGGLVQPGGSLRLSCAASGFTFTDYTMDWVRQAPGKGLEWVADVNPNSGGSIYNQRFKGRFTLSVDRSKNTLYLQMNSLRAEDTAVYYCARLMSYGYFDYWGQGTLVTVSS
VL: DIQMTQSPSSLSASVGDRVTITCKASQDVSIGVAWYQQKPGKAPKLLIYSASYRYTGVPSRFSGSGSGTDFTLTISSLQPEDFATYYCQQYYIYPYTFGQGTKVEIK
B2: hu2C4-g2.1 IgG1 (antibody, V domains shown)
VH: EVQLVESGGGLVQPGGSLRLSCAASGFTFTDYTMDWVRQAPGKGLEWVADVNPNSGGSIYNQRFKGRFTLSVDRSKNTLYLQMNSLRAEDTAVYYCARSSTPPFFMDYWGQGTLVTVSS
VL: DIQMTQSPSSLSASVGDRVTITCKASQDVSIGVAWYQQKPGKAPKLLIYSASYRYTGVPSRFSGSGSGTDFTLTISSLQPEDFATYYCQQYYIYPYTFGQGTKVEIK
B3: hu2C4-g1.1 IgG1 (antibody, V domains shown)
VH: EVQLVESGGGLVQPGGSLRLSCAASGFTFTDYTMDWVRQAPGKGLEWVADVNPNSGGSIYNQRFKGRFTLSVDRSKNTLYLQMNSLRAEDTAVYYCARAIAGGVLLDYWGQGTLVTVSS
VL: DIQMTQSPSSLSASVGDRVTITCKASQDVSIGVAWYQQKPGKAPKLLIYSASYRYTGVPSRFSGSGSGTDFTLTISSLQPEDFATYYCQQYYIYPYTFGQGTKVEIK
B4: hu2C4-g1.2 IgG1 (antibody, V domains shown)
VH: EVQLVESGGGLVQPGGSLRLSCAASGFTFTDYTMDWVRQAPGKGLEWVADVNPNSGGSIYNQRFKGRFTLSVDRSKNTLYLQMNSLRAEDTAVYYCARAITNEVLLDYWGQGTLVTVSS
VL: DIQMTQSPSSLSASVGDRVTITCKASQDVSIGVAWYQQKPGKAPKLLIYSASYRYTGVPSRFSGSGSGTDFTLTISSLQPEDFATYYCQQYYIYPYTFGQGTKVEIK
B5: hu2C4-g2.2 IgG1 (antibody, V domains shown)
VH: EVQLVESGGGLVQPGGSLRLSCAASGFTFTDYTMDWVRQAPGKGLEWVADVNPNSGGSIYNQRFKGRFTLSVDRSKNTLYLQMNSLRAEDTAVYYCARSSRPPWFFDYWGQGTLVTVSS
VL: DIQMTQSPSSLSASVGDRVTITCKASQDVSIGVAWYQQKPGKAPKLLIYSASYRYTGVPSRFSGSGSGTDFTLTISSLQPEDFATYYCQQYYIYPYTFGQGTKVEIK
B6: hu2C4-g3.2 IgG1 (antibody, V domains shown)
VH: EVQLVESGGGLVQPGGSLRLSCAASGFTFTDYTMDWVRQAPGKGLEWVADVNPNSGGSIYNQRFKGRFTLSVDRSKNTLYLQMNSLRAEDTAVYYCARLLAYGYLDYWGQGTLVTVSS
VL: DIQMTQSPSSLSASVGDRVTITCKASQDVSIGVAWYQQKPGKAPKLLIYSASYRYTGVPSRFSGSGSGTDFTLTISSLQPEDFATYYCQQYYIYPYTFGQGTKVEIK
B7: hu4D5-g3.1 Fab (Fab, V domains shown)
VH: EVQLVESGGGLVQPGGSLRLSCAASGFNIKDTYIHWVRQAPGKGLEWVARIYPTNGYTRYADSVKGRFTISADTSKNTAYLQMNSLRAEDTAVYYCARGHYSSGHPFDYWGQGTLVTVSS
VL: not shown
B8: hu4D5-g3.2 Fab (Fab, V domains shown)
VH: EVQLVESGGGLVQPGGSLRLSCAASGFNIKDTYIHWVRQAPGKGLEWVARIYPTNGYTRYADSVKGRFTISADTSKNTAYLQMNSLRAEDTAVYYCARGIGNGAEGMDYWGQGTLVTVSS
VL: not shown
B9: hu4D5-g2.2 Fab (Fab, V domains shown)
VH: EVQLVESGGGLVQPGGSLRLSCAASGFNIKDTYIHWVRQAPGKGLEWVARIYPTNGYTRYADSVKGRFTISADTSKNTAYLQMNSLRAEDTAVYYCARSHALVYGLIDYWGQGTLVTVSS
VL: not shown
B10: hu4D5-g2.1 Fab (Fab, V domains shown)
VH: EVQLVESGGGLVQPGGSLRLSCAASGFNIKDTYIHWVRQAPGKGLEWVARIYPTNGYTRYADSVKGRFTISADTSKNTAYLQMNSLRAEDTAVYYCARSHKNVMGLVDYWGQGTLVTVSS
VL: not shown
B11: F9.13.7 (antibody, V domains shown)
VH: QVQLQQPGAELVKPGASVKLSCKASGYTFTSYWMHWVKQGPGQGLEWIGEIDPSDSYPNYNEKFKGKATLTVDKSSSTAYMQLSSLTSEDSAVYYCASLYYYGTSYGVLDYWGQGTSVTVSS
VL: DIQMTQTTSSLSASLGDRVTISCRASQDISNYLNWYQKKPDGTVKLLIYYTSRLHSGVPSRFSGSGSGTDYSLTIRNLEQEDIATYFCQQGYTLPYTFGGGTKLEIK

One may read the Kd as the equilibrium constant for the complex coming apart. By koff is commonly meant the rate constant with which the complex falls apart. Read a high koff as fast dissociation. In general, kon refers to the second-order rate constant of association. A low value points to slow association.

One test has as its target T1, human epidermal growth factor receptor 2 (Homo sapiens, UniProt P04626). Nature of the test: SPR. (SPR reads the build-up and loss of mass on a sensor chip optically.)
As for B1, the affinity, expressed as Kd, was 6.4 nM; the koff is 0.0004 s⁻¹; the kon was 63000 M⁻¹ s⁻¹.

Molecule B2 returned a Kd of 25 nM, a koff of 0.00096 s⁻¹ and a kon of 39000 M⁻¹ s⁻¹.

Take B3: the Kd came out at 25 nM, the koff came to 0.0012 s⁻¹ and the kon came to 48000 M⁻¹ s⁻¹.

Turning to B4, the affinity, expressed as Kd, was 28 nM; the koff was 0.0014 s⁻¹; the kon was 49000 M⁻¹ s⁻¹.

B5 returned a Kd of 23 nM, a koff of 0.0015 s⁻¹ and a kon of 65000 M⁻¹ s⁻¹.

The molecule B6 gave a Kd of 9.9 nM, a koff of 0.00057 s⁻¹ and a kon of 58000 M⁻¹ s⁻¹.

A further test has as its target T1, human epidermal growth factor receptor 2. Nature of the test: SPR. The source holds these as a separate data set.
B7: the affinity, expressed as Kd, was 0.39 nM; the koff came to 0.00032 s⁻¹; the kon stood at 960000 M⁻¹ s⁻¹.

Molecule B8 displayed a Kd of 1.8 nM, a koff of 0.0011 s⁻¹ and a kon of 660000 M⁻¹ s⁻¹.

Regarding B9, binding was characterised by a dissociation constant (Kd) of 0.33 nM, the koff was found to be 0.00043 s⁻¹ and the kon worked out at 1.8e+06 M⁻¹ s⁻¹.

B10 showed a Kd of 0.27 nM, a koff of 0.00035 s⁻¹ and a kon of 1.6e+06 M⁻¹ s⁻¹.

The next test deals with hen egg-white lysozyme (chicken (hen egg-white), UniProt P00698). As to the kind of experiment: SPR.
For B11, the binding result was “binds”.

(Values after PMC7039645 (mAbs, 2020).)
